The record followed here is US7592168B2, “Cephalosporin C acylase mutant and method for preparing 7-ACA using same” (Sandoz AG, priority 2003, dated 2009).

Substrate in the data set: [H][C@]12SCC(COC(C)=O)=C(C(=O)O)N1C(=O)[C@H]2NC(=O)CCC[C@@H](N)C(=O)O
Description: CPC hydrolysis kinetics (Lineweaver-Burk plot), wild-type CPC acylase AcyII. The note with it: other: substrate CPC, purified enzyme, 0.1 M Tris-HCl pH 8.0, 37° C. In kind it is biochemical, Pseudomonas sp. SE83. The procedure:
The enzyme activity of CPC acylase mutant to CPC was measured according to the method described by Park et al. with minor modifications as follows (Park, et al., Kor. J. Appl. Microbiol. Biotechnol. 23: 559-564, 1995). A substrate solution was prepared by dissolving CPC (purity 74.2%; CJ Corp., Korea) in 0.1 M Tris-HCl buffer solution (pH 8.0) at a concentration of 20 mg/ml and adjusting pH to 8 with 1 N NaOH. 20 μl of the CPC solution was mixed with 20 μl of the crude enzyme solution prepared above and the reaction mixture was incubated at 37° C. for 5 min. After the reaction, the mixture (200 μl) of 50 mM NaOH and 20% glacial acetic acid (1:2) was added thereto to stop the reaction. 200 μl of the supernatant recovered from the reaction mixture by centrifugation was mixed with 40 μl of 0.5% (w/v) PDAB (p-dimethylaminobenzaldehyde; Sigma, USA) dissolved in a methanol and the reaction mixture was incubated at 37° C. for 10 min. After the reaction, the absorbance of reaction mixture was measured at 415 nm and quantified by comparing with a calibration curve of standard material. At this time, 1 unit has been defined as the amount of enzyme capable to produce 1 μmole of 7-ACA from CPC per minute. Meanwhile, the specific activity of CPC acylase mutant for CPC was determined by measuring the amount of protein remaining in the enzyme solution according to the method described by Bradford (Bradford, M., Anal. Biochem. 72: 248-254, 1976) and representing it as an active unit corresponding to 1 mg of protein. The reactivity of CPC acylase mutant to CPC was determined by the following steps of adding the same amount of protein to a reaction mixture, performing an enzyme reaction for a fixed time, measuring the amount of 7-ACA produced in the reaction mixture, and representing it as a relative value. The end-product inhibition by 7-ACA was determined by adding a protein corresponding to the same active unit to a reaction mixture, performing an enzyme reaction for a fixed time; measuring the amount of 7-ACA produced in the reaction mixture, and representing it as a relative value. […]

B1: Pseudomonas sp. SE83 CPC acylase AcyII, wild type, SEQ ID NO: 2 (alpha-subunit SEQ ID NO: 4, beta-subunit SEQ ID NO: 5) (Pseudomonas sp. SE83) (protein)
chain 1: TMAAKTDREALQAALPPLSGSLSIPGLSAPVRVQRDGWGIPHIKASGEADAYRALGFVHAQDRLFQMELTRRKALGRAAEWLGAEAAEADILVRRLGMEKVCRRDFEALGAEAKDMLRAYVAGVNAFLASGAPLPIEYGLLGAEPEPWEPWHSIAVMRRLGLLMGSVWFKLWRMLALPVVGAANALKLRYDDGGQDLLCIPPGVEAERLEADLAALRPAVDALLKAMGG
chain 2: SNNWAVAPGRTATGRPILAGDPHRVFEIPGMYAQHHLACDRFDMIGLTVPGVPGFPHFAHNGKVAYCVTHAFMDIHDLYLEQFAEDGRTARFGNEFEPVAWRRDRIAVRGGADREFDIVETRHGPVIAGDPLEGAALTLRSVQFAETDLSFDCLTRMPGASTVAQLYDATRGWGLIDHNLVAGDVAGSIGHLVRARVPSRPRENGWLPVPGWSGEHEWRGWIPHEAMPRVIDPPGGLIVTANNRVVADDHPDYLCTDCHPPYRAERIMERLVASPAFAVDDAAAIHADTLSPHVGLLRARLEALGIQGSLPAEELRQTLIAWDGRMDAGSQAASAYNAFRRALTRLVTARSGLEQAIAHPFAAVPPGVSPQGQVWWAVPTLLRNDDAGMLKGWSWDEALSEALSVATQNLTGRGWGEEHRPRFTHPLSAQFPAWAALLNPVSRPIGGDGDTVLANGLVPSAGPEATYGALSRYVFDVGNWDNSRWVVFHGASGHPASPHYADQNAPWSDCAMVPMLYSWDRIAAEAVTSQELVPA
notes: made in house; host or cells: E. coli MC1061
Regarding B1, the Km is 50 mM, the kcat is 0.9 s⁻¹ and the kcat/Km was 20 M⁻¹ s⁻¹.

A word on the Km: it is the substrate concentration at which the rate is half of its maximum. Broadly, the kcat is the maximal rate divided by the concentration of active sites. Broadly, the kcat/Km is the second-order rate constant that governs catalysis at low substrate concentration.
